The values below come from patent publication US20210253724A1.

B1: P1AE3108 (antibody, IgG1, V domains shown)
VH: QVQLVQSGAEVKKPGSSVKVSCKASGFNIKDSYMHWVRQAPGQGLEWMGWIDPENGDTEYAPKFQGRVTITTDESTSTAYMELSSLRSEDTAVYYCNEGTPTGPYYFDYWGQGTLVTVSS
VL: EIQMTQSPSSLSASVGDRVTITCRASQSISSYMHWYQQKPGKAPKLLIYSTSNLASGVPSRFSGSGSGTDFTLTISSLQPEDFATYYCQQRSSYPLTFGGGTKLEIK
B2: P1AE0289 CEA (A5B7) Fab (parental murine antibody) (Fab, V domains shown)
VH: EVKLVESGGGLVQPGGSLRLSCATSGFTFTDYYMNWVRQPPGKALEWLGFIGNKANGYTTEYSASVKGRFTISRDKSQSILYLQMNTLRAEDSATYYCTRDRGLRFYFDYWGQGTTLTVSS
VL: QTVLSQSPAILSASPGEKVTMTCRASSSVTYIHWYQQKPGSSPKSWIYATSNLASGVPARFSGSGSGTSYSLTISRVEAEDAATYYCQHWSSKPPTFGGGTKLEIK
B3: P1AE4135 Fab derived from P1AE2164 (Fab, V domains shown)
VH: EVQLLESGGGLVQPGGSLRLSCAASGFTFTDYYMNWVRQAPGKGLEWLGFIGNKANGYTTEYSASVKGRFTISRDKSKNTLYLQMNSLRAEDTATYYCTRDRGLRFYFDYWGQGTTVTVSS
VL: QTVLTQSPATLSLSPGERATLSCRASSSVTYIHWYQQKPGSSPKSWIYATSNLASGIPARFSGSGSGTDYTLTISSLEPEDFAVYYCQHWSSKPPTFGQGTKLEIK
B4: P1AE4143 Fab derived from P1AE2182 (Fab, V domains shown)
VH: EVQLLESGGGLVQPGGSLRLSCAASGFTFTDYYMNWVRQAPGKGLEWVGFIGNKANGYTTEYSASVKGRFTISRDKSKNTLYLQMNSLRAEDTAVYYCARDRGLRFYFDYWGQGTTVTVSS
VL: EIVLTQSPATLSLSPGERATLSCRASSSVTYIHWYQQKPGQAPRSWIYATSNLASGIPARFSGSGSGTDFTLTISSLEPEDFAVYYCQHWSSKPPTFGQGTKLEIK
B5: P1AE4139 Fab derived from P1AE2176 (Fab, V domains shown)
VH: EVQLLESGGGLVQPGGSLRLSCAASGFTFTDYYMNWVRQAPGKGLEWVGFIGNKANGYTTEYSASVKGRFTISRDNSKNTLYLQMNSLRAEDTAVYYCTRDRGLRFYFDYWGQGTTVTVSS
VL: EIVLTQSPATLSLSPGERATLSCRASSSVTYIHWYQQKPGSSPKSWIYATSNLASGIPARFSGSGSGTDFTLTISSLEPEDFAVYYCQHWSSKPPTFGQGTKLEIK
B6: P1AE4137 Fab derived from P1AE2166 (Fab, V domains shown)
VH: EVQLLESGGGLVQPGGSLRLSCAASGFTFTDYYMNWVRQAPGKGLEWLGFIGNKANGYTTEYSASVKGRFTISRDKSKNTLYLQMNSLRAEDTATYYCTRDRGLRFYFDYWGQGTTVTVSS
VL: EIVLTQSPATLSLSPGERATLSCRASSSVTYIHWYQQKPGSSPKSWIYATSNLASGIPARFSGSGSGTDFTLTISSLEPEDFAVYYCQHWSSKPPTFGQGTKLEIK
B7: P1AE4138 Fab derived from P1AE2167 (Fab, V domains shown)
VH: EVQLLESGGGLVQPGGSLRLSCAASGFTFTDYYMNWVRQAPGKGLEWLGFIGNKANGYTTEYSASVKGRFTISRDKSKNTLYLQMNSLRAEDTATYYCTRDRGLRFYFDYWGQGTTVTVSS
VL: EIVLTQSPATLSLSPGERATLSCRASSSVTYIHWYQQKPGQAPRSWIYATSNLASGIPARFSGSGSGTDFTLTISSLEPEDFAVYYCQHWSSKPPTFGQGTKLEIK
B8: P1AE4136 Fab derived from P1AE2165 (Fab, V domains shown)
VH: EVQLLESGGGLVQPGGSLRLSCAASGFTFTDYYMNWVRQAPGKGLEWLGFIGNKANGYTTEYSASVKGRFTISRDKSKNTLYLQMNSLRAEDTATYYCTRDRGLRFYFDYWGQGTTVTVSS
VL: QTVLTQSPATLSLSPGERATLSCRASSSVTYIHWYQQKPGQAPRLLIYATSNLASGIPARFSGSGSGTDFTLTISSLEPEDFAVYYCQHWSSKPPTFGQGTKLEIK
B9: P1AE4141 Fab derived from P1AE2179 (Fab, V domains shown)
VH: EVQLLESGGGLVQPGGSLRLSCAASGFTFTDYYMNWVRQAPGKGLEWVGFIGNKANGYTTEYSASVKGRFTISRDKSKNTLYLQMNSLRAEDTAVYYCARDRGLRFYFDYWGQGTTVTVSS
VL: QTVLTQSPATLSLSPGERATLSCRASSSVTYIHWYQQKPGSSPKSWIYATSNLASGIPARFSGSGSGTDYTLTISSLEPEDFAVYYCQHWSSKPPTFGQGTKLEIK
B10: P1AE4140 Fab derived from P1AE2177 (Fab, V domains shown)
VH: EVQLLESGGGLVQPGGSLRLSCAASGFTFTDYYMNWVRQAPGKGLEWVGFIGNKANGYTTEYSASVKGRFTISRDNSKNTLYLQMNSLRAEDTAVYYCTRDRGLRFYFDYWGQGTTVTVSS
VL: EIVLTQSPATLSLSPGERATLSCRASSSVTYIHWYQQKPGQAPRSWIYATSNLASGIPARFSGSGSGTDFTLTISSLEPEDFAVYYCQHWSSKPPTFGQGTKLEIK
B11: P1AE4142 Fab derived from P1AE2181 (Fab, V domains shown)
VH: EVQLLESGGGLVQPGGSLRLSCAASGFTFTDYYMNWVRQAPGKGLEWVGFIGNKANGYTTEYSASVKGRFTISRDKSKNTLYLQMNSLRAEDTAVYYCARDRGLRFYFDYWGQGTTVTVSS
VL: EIVLTQSPATLSLSPGERATLSCRASSSVTYIHWYQQKPGSSPKSWIYATSNLASGIPARFSGSGSGTDFTLTISSLEPEDFAVYYCQHWSSKPPTFGQGTKLEIK

Chain of hu N(A2-B2)A-avi-His B (human) (P06731 whole entry): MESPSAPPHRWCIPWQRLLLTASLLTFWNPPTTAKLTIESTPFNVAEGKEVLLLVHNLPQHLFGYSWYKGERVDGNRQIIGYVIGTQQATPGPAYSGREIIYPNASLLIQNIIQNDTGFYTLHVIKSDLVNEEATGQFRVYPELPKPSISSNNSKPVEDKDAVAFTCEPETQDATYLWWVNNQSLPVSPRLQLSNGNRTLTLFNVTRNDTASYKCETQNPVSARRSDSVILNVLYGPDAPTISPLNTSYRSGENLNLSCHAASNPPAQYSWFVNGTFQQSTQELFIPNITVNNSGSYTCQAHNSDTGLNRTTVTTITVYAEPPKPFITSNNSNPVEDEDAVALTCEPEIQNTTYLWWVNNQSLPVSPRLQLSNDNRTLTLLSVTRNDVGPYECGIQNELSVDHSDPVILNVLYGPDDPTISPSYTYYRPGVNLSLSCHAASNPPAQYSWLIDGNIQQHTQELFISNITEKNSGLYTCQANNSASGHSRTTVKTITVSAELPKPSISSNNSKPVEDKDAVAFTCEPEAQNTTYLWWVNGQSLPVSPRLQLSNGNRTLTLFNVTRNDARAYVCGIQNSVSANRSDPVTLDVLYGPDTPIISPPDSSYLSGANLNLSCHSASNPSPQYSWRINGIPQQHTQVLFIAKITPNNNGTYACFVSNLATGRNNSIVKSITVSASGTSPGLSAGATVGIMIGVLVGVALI

One assay deals with human CEACAM5 (CEA) on cells (human) (UniProt P06731). Briefly: flow cytometry on MKN45 cells. The arrangement: unit not given beside the values.
Chain of human CEACAM5 (CEA) on cells (human) (P06731 35-685 E398K limits assumed): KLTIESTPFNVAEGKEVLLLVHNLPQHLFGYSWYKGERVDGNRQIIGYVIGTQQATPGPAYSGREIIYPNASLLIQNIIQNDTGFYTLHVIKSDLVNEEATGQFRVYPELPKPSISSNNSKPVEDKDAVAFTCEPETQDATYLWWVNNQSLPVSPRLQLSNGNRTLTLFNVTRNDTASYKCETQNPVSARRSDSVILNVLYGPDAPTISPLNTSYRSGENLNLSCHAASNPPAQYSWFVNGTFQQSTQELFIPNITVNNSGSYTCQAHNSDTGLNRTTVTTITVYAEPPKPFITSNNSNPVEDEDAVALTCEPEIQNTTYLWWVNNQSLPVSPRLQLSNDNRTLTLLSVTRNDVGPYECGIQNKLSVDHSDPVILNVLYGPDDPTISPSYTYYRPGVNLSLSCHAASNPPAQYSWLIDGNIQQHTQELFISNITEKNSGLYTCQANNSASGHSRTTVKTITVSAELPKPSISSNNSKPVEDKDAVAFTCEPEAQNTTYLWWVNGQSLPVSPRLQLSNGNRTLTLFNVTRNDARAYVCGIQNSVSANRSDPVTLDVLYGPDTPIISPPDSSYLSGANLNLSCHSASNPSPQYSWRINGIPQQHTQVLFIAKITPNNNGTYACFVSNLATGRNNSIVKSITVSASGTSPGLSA
Consider B1, for which the AUC amounted to 2090.

A further assay has as its target hu N(A2-B2)A-avi-His B (human). Briefly: SPR (Biacore T200), CEA construct immobilised, Fab as analyte, 1:1 Langmuir fit.
The molecule B2 came in with a Kd of 0.559 nM.
In the case of B3, the Kd is 1.7 nM.
The molecule B4 had a Kd of 2.92 nM.
B5 displayed a Kd of 7.58 nM.
On to B6, for which the equilibrium dissociation constant (Kd) is 11.3 nM.
B7 yielded a Kd of 1.47 nM.
The molecule B8 displayed a Kd of 1.25 nM.
The same measure, in the same setting: the value for B9 was 1.83 nM.
Molecule B10 showed a Kd of 7.62 nM.
Regarding B11, the Kd is 2.64 nM.
